Measurements reported in patent US20090162378A1.

B1: HCMV-20 scFv antibody, purified His-tag fused polypeptide expressed in E. coli (scFv)
scFv: MAQVQLQESGPGLVKPSGTLSLTCAVSGGSISSSNWWSWVRQPPGKGLEWIGEIYHSGSTNYNPSLKSRVTISVDKSKNQFSLKLSSVTAADTAVYYCAREGSYEAFDYWGQGTLVTVSSGGGGSGGGGSGGGGSNFMLTQPHSVSESPGKTVTISCTRSSGSIASNYVQWYQQRPGSAPSTVIYDDNQRPSGVPDRFSGSIDSSSNSASLTISGLKTEDEADYYCQSYDSSNHGVVFGGGTKLTVLGAA
B2: HCMV-20 scFv antibody displayed on phage (positive phage clone from the mixed scFv phage display library) (scFv)
scFv: B1 scFv

Key:
[1] = molecular target: HCMV RC256 particles (human cytomegalovirus strain RC256) (human cytomegalovirus); experiment: cell-based or functional assay
[2] = molecular target: HCMV RC256 particles (human cytomegalovirus strain RC256) (human cytomegalovirus); experiment: phage ELISA; plate coated with HCMV RC256 against a control plate coated with lysate of E. coli transfected with pET-22b; detection with HRP anti-M13

| Binder | plaque number, Test 1, 1.0 uM HCMV-20 (virus only: 152) [1] [plaques] | plaque number, Test 1, 2.0 uM HCMV-20 (virus only: 152) [1] [plaques] | plaque number, Test 1, 4.1 uM HCMV-20 (virus only: 152) [1] [plaques] | plaque number, Test 1, 8.1 uM HCMV-20 (virus only: 152) [1] [plaques] | plaque number, Test 1, 16.3 uM HCMV-20 (virus only: 152) [1] [plaques] | plaque number, Test 2, 1.0 uM HCMV-20 (virus only: 139) [1] [plaques] | plaque number, Test 2, 2.0 uM HCMV-20 (virus only: 139) [1] [plaques] | plaque number, Test 2, 4.1 uM HCMV-20 (virus only: 139) [1] [plaques] | plaque number, Test 2, 8.1 uM HCMV-20 (virus only: 139) [1] [plaques] | plaque number, Test 2, 16.3 uM HCMV-20 (virus only: 139) [1] [plaques] | HCMV/control (ELISA signal ratio) [2] |
| --- | --- | --- | --- | --- | --- | --- | --- | --- | --- | --- | --- |
| B1 | 92 | 36 | 23 | 20 | 15 | 93 | 42 | 17 | 16 | 16 |  |
| B2 |  |  |  |  |  |  |  |  |  |  | > 8 |
